B1: Complement factor H (Homo sapiens), P08603 (parent)
chain: MRLLAKIICLMLWAICVAEDCNELPPRRNTEILTGSWSDQTYPEGTQAIYKCRPGYRSLGNVIMVCRKGEWVALNPLRKCQKRPCGHPGDTPFGTFTLTGGNVFEYGVKAVYTCNEGYQLLGEINYRECDTDGWTNDIPICEVVKCLPVTAPENGKIVSSAMEPDREYHFGQAVRFVCNSGYKIEGDEEMHCSDDGFWSKEKPKCVEISCKSPDVINGSPISQKIIYKENERFQYKCNMGYEYSERGDAVCTESGWRPLPSCEEKSCDNPYIPNGDYSPLRIKHRTGDEITYQCRNGFYPATRGNTAKCTSTGWIPAPRCTLKPCDYPDIKHGGLYHENMRRPYFPVAVGKYYSYYCDEHFETPSGSYWDHIHCTQDGWSPAVPCLRKCYFPYLENGYNQNYGRKFVQGKSIDVACHPGYALPKAQTTVTCMENGWSPTPRCIRVKTCSKSSIDIENGFISESQYTYALKEKAKYQCKLGYVTADGETSGSITCGKDGWSAQPTCIKSCDIPVFMNARTKNDFTWFKLNDTLDYECHDGYESNTGSTTGSIVCGYNGWSDLPICYERECELPKIDVHLVPDRKKDQYKVGEVLKFSCKPGFTIVGPNSVQCYHFGLSPDLPICKEQVQSCGPPPELLNGNVKEKTKEEYGHSEVVEYYCNPRFLMKGPNKIQCVDGEWTTLPVCIVEESTCGDIPELEHGWAQLSSPPYYYGDSVEFNCSESFTMIGHRSITCIHGVWTQLPQCVAIDKLKKCKSSNLIILEEHLKNKKEFDHNSNIRYRCRGKEGWIHTVCINGRWDPEVNCSMAQIQLCPPPPQIPNSHNMTTTLNYRDGEKVSVLCQENYLIQEGEEITCKDGRWQSIPLCVEKIPCSQPPQIEHGTINSSRSSQESYAHGTKLSYTCEGGFRISEENETTCYMGKWSSPPQCEGLPCKSPPEISHGVVAHMSDSYQYGEEVTYKCFEGFGIDGPAIAKCLGEKWSHPPSCIKTDCLSLPSFENAIPMGEKKDVYKAGEQVTYTCATYYKMDGASNVTCINSRWTGRPTCRDTSCVNPPTVQNAYIVSRQMSKYPSGERVRYQCRSPYEMFGDEEVMCLNGNWTEPPQCKDSTGKCGPPPPIDNGDITSFPLSVYAPASSVEYQCQNLYQLEGNKRITCRNGQWSEPPKCLHPCVISREIMENYNIALRWTAKQKLYSRTGESVEFVCKRGYRLSSRSHTLRTTCWDGKLEYPTCAKR
partner: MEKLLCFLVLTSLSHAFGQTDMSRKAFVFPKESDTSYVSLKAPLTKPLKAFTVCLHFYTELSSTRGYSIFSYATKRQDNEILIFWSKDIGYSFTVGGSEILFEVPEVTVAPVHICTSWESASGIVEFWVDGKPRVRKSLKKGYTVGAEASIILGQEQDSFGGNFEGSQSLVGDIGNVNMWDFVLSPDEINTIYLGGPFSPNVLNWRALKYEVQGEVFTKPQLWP
B2: Complement factor H (Homo sapiens), P08603 (parent)
chain: B1 chain
partner: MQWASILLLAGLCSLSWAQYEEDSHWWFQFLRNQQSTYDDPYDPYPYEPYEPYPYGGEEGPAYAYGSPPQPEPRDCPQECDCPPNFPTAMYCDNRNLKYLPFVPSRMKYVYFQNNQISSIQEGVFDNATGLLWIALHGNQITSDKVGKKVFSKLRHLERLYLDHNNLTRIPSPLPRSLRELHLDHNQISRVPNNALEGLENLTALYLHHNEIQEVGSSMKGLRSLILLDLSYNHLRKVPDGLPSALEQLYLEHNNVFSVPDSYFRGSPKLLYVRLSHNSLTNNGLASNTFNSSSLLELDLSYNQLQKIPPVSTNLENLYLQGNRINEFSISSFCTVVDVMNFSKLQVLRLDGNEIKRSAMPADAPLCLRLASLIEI

Variants of: B1
Conditions: with crp_human CRP

| Variant | effect of a mutation on the interaction |
| --- | --- |
| Y402H | decreasing interaction strength |

Variants of: B2
Conditions: with fmod_bovin FMOD

| Variant | effect of a mutation on the interaction |
| --- | --- |
| Y402H | decreasing interaction strength |

From IntAct's records for PubMed 17293598
